According to patent publication US7732178B2, “Laccase enzymes and their uses” (AB Enzymes Oy, priority 2004, dated 2010):
“And” between values parts separate entries of the source, which are not always exact repeats. Identical values can stand only once. Like-named read-outs stand apart in the source and are kept apart here.

What was measured:
[1] = test system: Thielavia arenaria ALKO4197 laccase TaLcc3, recombinant, SEQ ID NO: 43; assay: Kinetic parameters of TaLcc3; assay type: biochemical
Experimental: (§1) On syringaldazin and DMP 40 mM MES buffer, pH 6 was used. All activity assays were carried out at 25° C. Kinetic parameters were estimated by a nonlinear regression curve fit. The values were compared to those of Melanocarpus albomyces MaL, laccase.

[2] = biological target: T1, Melanocarpus albomyces laccase (MaL) (Melanocarpus albomyces, UniProt Q70KY3); assay: Kinetic parameters of MaL; assay type: biochemical
T1 sequence (Q70KY3 51-609): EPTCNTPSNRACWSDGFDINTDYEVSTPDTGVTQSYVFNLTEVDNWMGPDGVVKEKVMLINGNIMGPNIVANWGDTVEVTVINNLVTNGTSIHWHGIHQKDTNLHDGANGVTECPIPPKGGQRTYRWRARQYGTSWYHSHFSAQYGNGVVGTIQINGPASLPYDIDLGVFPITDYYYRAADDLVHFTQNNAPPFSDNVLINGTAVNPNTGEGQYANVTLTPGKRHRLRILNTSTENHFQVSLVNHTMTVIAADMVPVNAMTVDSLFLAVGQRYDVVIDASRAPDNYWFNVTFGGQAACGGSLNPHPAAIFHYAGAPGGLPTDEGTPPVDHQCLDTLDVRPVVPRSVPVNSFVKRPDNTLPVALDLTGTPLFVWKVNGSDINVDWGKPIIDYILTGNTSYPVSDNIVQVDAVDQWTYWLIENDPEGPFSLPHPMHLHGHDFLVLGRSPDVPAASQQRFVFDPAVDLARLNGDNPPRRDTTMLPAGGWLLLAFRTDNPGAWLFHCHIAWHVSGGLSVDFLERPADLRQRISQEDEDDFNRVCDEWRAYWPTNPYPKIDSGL
Experimental: as §1

[3] = biological target: T2, Thielavia arenaria ALKO4197 laccase TaLcc1, recombinant, SEQ ID NO: 39 (Canariomyces arenarius, UniProt F6N9E7); assay type: biochemical
T2 construct: plasmid pALK1342 (DSM 15484)
Experimental: as §1

[4] = test system: Thielavia arenaria ALKO4197 laccase TaLcc4, recombinant, SEQ ID NO: 45; assay: Kinetic parameters of TaLcc4; assay type: biochemical
Experimental: as §1

[5] = test system: wild type Chaetomium (CtL) laccase; assay type: biochemical, Chaetomium thermophilum; conditions: pH 5
[6] = Specific activity towards di-methoxy-phenol (DMP); assay type: biochemical; conditions: 25 mM MES buffer, pH 5.5
Experimental: (§2) Specific activities of the purified T. arenaria and C. thermophilum laccases were determined towards different laccase substrates.

[7] = Specific activity towards guaiacol; assay type: biochemical; conditions: 25 mM MES buffer, pH 5.5
Experimental: as §2

[8] = Denim bleaching at different temperatures; design: key to After laccase treatment L* / After laccase treatment b* / Increase of L*: CIE L*a*b* colour coordinates (illuminant D65), reflectance; conditions: face side of denim; 30 min, 40° C., pH 6; enzyme 200 nkat/g, mediator 10 mg/g
Experimental: (§3) Lee Cooper jeans (MASI Company Oy, Finland) that were desized and treated with neutral ECOSTONE® cellulase were used as test material. Laccase treatments were performed in LP-2 Launder Ometer as follows. About 10 g of denim swatches (15×14 cm) were loaded into 1.2 liter containers containing 200 ml Mc Ilvaine's citrate phosphate buffer pH 5, 6 or 7 and the containers were temperated. Enzyme with or without the mediator (methyl syringate, DeniLite II Assist, Novozymes) was added as laccase activity units. Enzyme was dosed 200 nkat/g and the mediator 10 mg/g on the weight of fabric. […] The Launder Ometer was run at 50° C. for 30 min and after that the temperature in Launder was raised to 80° C. for 10 min. The swatches were carefully rinsed with warm water, dried half-dry in a tumbler and after that air dried.
(§4) The bleaching effect was evaluated by measuring the colour as reflectance values with the Minolta Chromameter CM 1000 (Minolta Co.) using L*a*b* color space coordinates (illuminant D65). The colour from both sides of the swatches was measured before and after the laccase treatment. Each measurement was the average of several measurements.
The test system and denim were as in Example 7, except that the conditions during the laccase and mediator treatment in Launder were 30 min, pH 6 and temperature 30-70° C. (DeniLite II Base also at 80° C.) and the enzyme was inactivated by alkaline treatment instead of raising the temperature in Launder as follows. After removing swatches from the containers they were soaked in warm water containing NaOH (pH 11.5) for 10 min and rinsed carefully with warm water. The swatches were dried half-dry in a tumbler and after that air dried. The bleaching effect was evaluated by measuring the colour as reflectance values as in Example 7.

[9] = Specific activity towards ABTS; assay type: biochemical; conditions: 25 mM succinate buffer pH 4.5, 25° C.
Experimental: The activity assay was carried out in accordance with the method developed by Niku-Paavola et al. (1988). The sample was diluted with 0.025 M succinate buffer, pH 4.5. […] The activity is expressed as nano katals.
as §2

[10] = Isoelectric focusing (pI); assay type: physicochemical; conditions: pH range 3-9
Experimental: Molecular weight of the T. arenaria and C. thermophilum laccases were determined on SDS-PAGE according to Laemmli (1970) The gels used in the SDS-PAGE analysis were ready-made 12% Tris HCl gels (BioRad). Protein bands were visualized by staining with Coomassie Brilliant Blue (R 350; Pharmacia) and compared with molecular weight markers (Prestained Protein Marker Broad Range #7708S; New England BioLabs, Beverly, Mass.). The molecular weight of the both laccases was approximately 80 kDa. The isoelectric point of the laccases was determined with isoelectric focusing within the pH range of 3-9 (Pharmalyte IEF, Pharmacia) on a LKB 2117 Multiphor II Electrophoresis System (LKB Pharmacia, Bromma, Sweden) according to the manufacturer's instructions.
The purified recombinant Thielavia and Chaetomium laccases were characterized in terms of pH optimum, thermal stability, and pI as described in Example 2. The molecular weight was determined by MALDI-TOF mass spectrometry on a Ultraflex™ time-of-flight instrument (BrukerDaltonics, Germany) as previously described (Palonen et al., 2003). The redox-potentials of the T1 coppers of for CtLcc, and TaLcc2 laccases were determined by photometric copper titration in 0.1 M KH2PO4 (pH 6.0) as described by Xu et al. (1996) using the redox titrant couple K3Fe(CN)6/K4Fe(CN)6. The redox potential of TaLcc1 was determined with a combined Pt—AgCl/KCl microelectrode at pH 5.0 according to Sigoillot et al (2004). The characterization results are collected to Table 14.

[11] = Stain removal, tea soiling; design: key to Tea L* / Tea a* / Tea b*: CIE L*a*b* color coordinates from reflectance; conditions: 60 min, pH 6
Experimental: (§5) Laccases CtLcc1, TaLcc2, TaLcc4 and Denilite II Base (Example 7) were tested for their ability to remove stains. The following artificially soiled test cloths were used: grass soiling (Art.164, EMPA Testmaterialen, Germany), tea soiling (Art. 167, EMPA Testmaterialen, Germany). The fabric was cut in 5.8×5.8 cm swatches. Laccase treatments were performed in LP-2 Launder Ometer as follows. About 5 g of soiled fabrics were loaded into 1.2 liter containers containing 150 ml Mc Ilvaine's citrate phosphate buffer pH 6 and the containers were temperated. Enzyme with or without the mediator (methyl syringate, DeniLite II Assist, Novozymes) was added as laccase activity units (Example 7). Enzyme was dosed 200 nkat/g and the mediator 10 mg/g on the weight of fabric, except at 40° C. dosages of 20 nkat/g and 2 mg/g were also used. The Launder Ometer was run at 40, 50 or 60° C. and pH 6 for 60 min. After that the swatches were carefully rinsed under running water and in shake flasks containing warm water and dried in the air.
(§6) The stain removal effect was evaluated by measuring the colour as reflectance values using L*a*b* color space coordinates (Example 7). The colour of the swatches was measured before and after the laccase treatment.

[12] = Stain removal, grass soiling; design: key to Grass L* / Grass a* / Grass b*: CIE L*a*b* color coordinates from reflectance; conditions: for Grass L* / Grass a* / Grass b*: 60 min, pH 6
Experimental: as §5, §6

[13] = Denim bleaching at different pH values; design: key to After laccase treatment L* / After laccase treatment b* / Increase of L*: CIE L*a*b* colour coordinates (illuminant D65), Minolta reflectance; conditions: face side of denim, 30 min, 50° C.
Experimental: as §3, §4

[14] = Specific activity towards syringaldazine; assay type: biochemical; conditions: 25 mM MES buffer, pH 5.5
Experimental: as §2

[15] = 25 mM succinate buffer pH 4.5, 25° C.
[16] = 40° C., enzyme 20 nkat/g + mediator 2 mg/g (Mediator only: 0 nkat/g)
[17] = 40° C., enzyme 200 nkat/g + mediator 10 mg/g (Mediator only: 0 nkat/g)
[18] = 40° C., enzyme 200 nkat/g, mediator 0 mg/g
[19] = 50° C., enzyme 200 nkat/g + mediator 10 mg/g (Mediator only: 0 nkat/g)
[20] = pH 5, enzyme 200 nkat/g without the mediator, or mediator 10 mg/g alone
[21] = pH 5, enzyme 200 nkat/g, mediator 10 mg/g
[22] = pH 6, enzyme 200 nkat/g without the mediator, or mediator 10 mg/g alone
[23] = pH 6, enzyme 200 nkat/g, mediator 10 mg/g
[24] = pH 7, enzyme 200 nkat/g without the mediator, or mediator 10 mg/g alone
[25] = pH 7, enzyme 200 nkat/g, mediator 10 mg/g

T2 sequence (F6N9E7 entry or part of it): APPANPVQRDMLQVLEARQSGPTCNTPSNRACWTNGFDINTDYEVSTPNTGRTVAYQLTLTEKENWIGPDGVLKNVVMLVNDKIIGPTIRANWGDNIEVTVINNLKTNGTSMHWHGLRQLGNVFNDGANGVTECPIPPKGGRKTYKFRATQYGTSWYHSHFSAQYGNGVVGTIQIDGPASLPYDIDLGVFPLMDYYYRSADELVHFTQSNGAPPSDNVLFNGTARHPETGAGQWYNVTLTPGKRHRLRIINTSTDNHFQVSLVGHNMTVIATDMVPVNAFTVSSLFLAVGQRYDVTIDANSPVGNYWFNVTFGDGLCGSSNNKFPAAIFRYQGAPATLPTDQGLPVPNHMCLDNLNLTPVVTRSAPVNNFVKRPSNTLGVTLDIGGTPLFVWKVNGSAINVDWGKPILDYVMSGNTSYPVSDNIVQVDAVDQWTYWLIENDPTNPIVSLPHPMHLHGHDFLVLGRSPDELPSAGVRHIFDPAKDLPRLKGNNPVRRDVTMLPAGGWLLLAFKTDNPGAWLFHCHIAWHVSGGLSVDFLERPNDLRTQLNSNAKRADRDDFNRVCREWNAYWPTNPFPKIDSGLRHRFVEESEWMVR

## COc1cccc(OC)c1O [DMP, 2,6-dimethoxy phenol]
[1]; 40 mM MES buffer, pH 6, 25° C.
  Km: 14 µM
  kcat: 0.083 s⁻¹
[2]; 40 mM MES buffer, pH 6, 25° C.
  kcat: 69.33 s⁻¹
[3]; 40 mM MES buffer, pH 6, 25° C.
  Km: 17 µM
  kcat: 67.17 s⁻¹
[4]; 40 mM MES buffer, pH 6, 25° C.
  Km: 1900 µM
  kcat: 26.5 s⁻¹

## CCn1c(=NN=c2sc3cc(S(=O)(=O)O)ccc3n2CC)sc2cc(S(=O)(=O)O)ccc21 [ABTS, 2,2′azinobis-3-ethylbenzthiazole-6-sulphonate]
[1]; [15]
  Km: 1040 µM
  kcat: 0.617 s⁻¹
[2]; pH 4.5
  kcat: 78.17 s⁻¹
[3]; pH 4.5
  Km: 75 µM
  kcat: 68.83 s⁻¹
[4]; [15]
  Km: 2470 µM
  kcat: 143.5 s⁻¹

## [F-].[Na+] [NaF]
[5]
  Inhibition (%) CtL: 40% and 70%

B1: TaLcc4: Thielavia arenaria ALKO 4197 laccase, SEQ ID NO: 45, produced in Trichoderma reesei (protein)
chain: MISRLLFTSSFTATLASALPGLLYAPHSSALLARSSCSGNTASTRSQWCDYSIDTDYTTEPVDTGVTREYWLELTDVTVSPDGVSRSAMAVNGSIPGPTIFADWGDTVVVHVTNSLSTSLNGTSIHWHGIRQNYTNQNDGVASITQCPLAVGESTTYTWKATQYGSSWYHSHFSLQAWEGVFGGIIINGPSTANYDEDLGMLFLNDWDHQTVDELYSSAETSGPPTLANGLINGTNVYGEDGDSSQTGTRLAVSFTSGTSYRMRLVNAAVDTHWKFSIGNHTMTVMAADLVPIEPYETTVLTIGMGQRYDIVVTADQADVADNFWMRAIPQSACSDNDSADNIRGIVYYGDSPGTPSTTGYDFEDACDDETANITPYISKTVSSAEWNDLETASVSRNSAGLFKWYLNSTTMLVDWAKPTLEMVTDNVTEYDSDDAIIELNEANQWVYMVVQTTLQVPHPIHLHGHDFFILAQGSGTYDSSTVTLKTDNPPRRDTAMLPSQGYLVMAWETDNPGVWLMHCHIGWHTSEGFALQFIERKSEIASIVSTSTMKDICTKWEEFQEEYSIEQEDSGV
modifications: Thielavia arenaria ALKO4197; (1)..(573) Deduced amino acid sequence of Thielavia arenaria ALKO4197 TaLcc4
[6]
  Specific activity on DMP: 110 nkat/mg
[7]
  Specific activity on guaiacol: 5 nkat/mg
[8]
  After laccase treatment L*: 29.23
  After laccase treatment b*: −18.44
  Increase of L*: 0.12
[9]
  Specific activity on ABTS: 1000 nkat/mg
[10]
  pI: 3.0
[11]; [16]
  Tea L*: 75.09
  Tea a*: 5.73
  Tea b*: 22.08
[11]; [17]
  Tea L*: 74.56
  Tea a*: 5.58
  Tea b*: 23.55
[11]; [18]
  Tea L*: 76.74
  Tea a*: 5.05
  Tea b*: 21.67
[11]; [19]
  Tea L*: 75.13
  Tea a*: 5.19
  Tea b*: 22.44
[12]; 50° C.
  greenness reduced (grass): ca. 2 units
[12]; [16]
  Grass L*: 78.53
  Grass a*: −6.07
  Grass b*: 19.33
[12]; [17]
  Grass L*: 78.94
  Grass a*: −3.77
  Grass b*: 16.77
[12]; [18]
  Grass L*: 79.84
  Grass a*: −4.98
  Grass b*: 17.62
[12]; [19]
  Grass L*: 78.62
  Grass a*: −4.00
  Grass b*: 17.16
[13]; [20]
  After laccase treatment L*: 29.40
  After laccase treatment b*: −18.70
  Increase of L*: −0.04
[13]; [21]
  After laccase treatment L*: 29.17
  After laccase treatment b*: −18.47
  Increase of L*: 1.01
[13]; [22]
  After laccase treatment L*: 27.68
  After laccase treatment b*: −18.76
  Increase of L*: 0.24
[13]; [23]
  After laccase treatment L*: 29.55
  After laccase treatment b*: −18.11
  Increase of L*: 1.35
[13]; [24]
  After laccase treatment L*: 29.29
  After laccase treatment b*: −18.89
  Increase of L*: 0.50
[13]; [25]
  After laccase treatment L*: 28.31
  After laccase treatment b*: −18.33
  Increase of L*: 0.47
[14]
  Specific activity on syringaldazin: 52 nkat/mg
